Assays:
[1] = biological target: T1, human insulin-like growth factor 1 (IGF-1) (human, UniProt P05019 49-118); assay: method not stated; affinity quoted in Example 3
T1 construct: also called hIGF-1

[2] = biological target: T2, human insulin-like growth factor 2 (IGF-2) (human, UniProt P01344 25-91); assay: method not stated; affinity quoted in Example 3
T2 construct: also called hIGF-2

[3] = biological target: T1, human insulin-like growth factor 1 …; assay: cell-based or functional assay
[4] = biological target: T2, human insulin-like growth factor 2 …; assay: cell-based or functional assay

T1 sequence (P05019 49-118 limits assumed): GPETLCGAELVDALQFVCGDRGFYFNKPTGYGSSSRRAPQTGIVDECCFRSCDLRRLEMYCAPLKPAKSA
T2 sequence (P01344 25-91 limits assumed): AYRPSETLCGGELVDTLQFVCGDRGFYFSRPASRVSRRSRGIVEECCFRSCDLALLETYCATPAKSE

Kd [1]: 0.000294 µM
Kd [2]: 2 pM
IC50 (µM), inhibition of IGF-1-stimulated proliferation of MG-63 cells (CellTiter-Glo) [3]: 223 µM
IC50 (µM), inhibition of IGF-1-stimulated proliferation of RD-ES cells (CellTiter-Glo) [3]: 40 µM
IC50 (µM), inhibition of IGF-1-stimulated proliferation of SAOS2 cells (CellTiter-Glo) [3]: 177 µM
IC50 (µM), inhibition of IGF-1-stimulated proliferation of SK-ES-1 cells (CellTiter-Glo) [3]: 20 µM
IC50 (µM), inhibition of IGF-2-stimulated proliferation of MG-63 cells (CellTiter-Glo) [4]: 5.8 µM
IC50 (µM), inhibition of IGF-2-stimulated proliferation of RD-ES cells (CellTiter-Glo) [4]: 2 µM
IC50 (µM), inhibition of IGF-2-stimulated proliferation of SAOS2 cells (CellTiter-Glo) [4]: 5.3 µM
IC50 (µM), inhibition of IGF-2-stimulated proliferation of SK-ES-1 cells (CellTiter-Glo) [4]: 20 µM
B1: MEDI-573 (antibody, human IgG2, lambda, V domains shown)
VH: QVQLVQSGAEVKKPGASVKVSCKASGYTFTSYDINWVRQATGQGLEWMGWMNPNSGNTGYAQKFQGRVTMTRNTSISTAYMELSSLRSEDTAVYYCARDPYYYYYGMDVWGQGTTVTVSS
VL: QSVLTQPPSVSAAPGQKVTISCSGSSSNIENNHVSWYQQLPGTAPKLLIYDNNKRPSGIPDRFSGSKSGTSATLGITGLQTGDEADYYCETWDTSLSAGRVFGGGTKLTVLG
notes: also called mAb 7.159.2; anti-IGF antibody

— patent US20160324962A1 (AstraZeneca / MedImmune, published 2016)
